Data: paper PMC13356908

Columns and labels:
[1] = target: LD655-labeled p97 D592AzF (human) (UniProt P55072); experiment: cryo-EM structure; datasets 1 and 2: 12.5 uM ^LD655p97^D592AzF, 10 uM UN, 10 uM Faf1 FH-UBX, 20 uM Ub-^Cy3Ub-Ubn, GF buffer with 5 mM ATP, 0.06% CHAPS, 0.04% octyl-β-D-glucopyranoside, frozen at once after mixing; PI state, I state, Npl4 local map, IC1 and IC2
[2] = target: LD655-labeled p97 D592AzF (human) (UniProt P55072); experiment: FRET or BRET; stopped-flow mixing, 37°C, with ATP; 1 uM ^LD655p97/UN/Faf1 and 0.1 uM Ub-^Cy3Ub-Ubn chains; excitation 480 nm; apparent time constant
Ufd1 (human) (human) = target: T1, Ufd1 (human) (human)
T1 sequence (Q92890 1-307, looked up): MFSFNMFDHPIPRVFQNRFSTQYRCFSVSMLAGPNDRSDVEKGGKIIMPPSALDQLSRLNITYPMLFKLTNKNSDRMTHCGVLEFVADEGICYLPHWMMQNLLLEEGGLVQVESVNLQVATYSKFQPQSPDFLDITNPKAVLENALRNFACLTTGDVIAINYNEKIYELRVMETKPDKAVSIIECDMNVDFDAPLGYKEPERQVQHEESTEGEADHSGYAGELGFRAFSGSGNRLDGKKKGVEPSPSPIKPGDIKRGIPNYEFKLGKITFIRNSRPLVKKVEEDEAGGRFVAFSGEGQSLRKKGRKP

Q: Which stoichiometry N (per p97 hexamer) [1] does the source give for “Faf1 FH-UBX fragment (from UniProt Q9UNN5 481-650) (domain or fragment)” here?
A: Its stoichiometry N (per p97 hexamer) is 2.

Q: For “unanchored poly-ubiquitin chains with Cy3 on the second ubiquitin (Ub-^Cy3Ub-Ubn) (from UniProt P0CG48 1-76; P0CG48 1-76; P0CG48 1-76)”, which apparent time constant of ubiquitin insertion (τinitiation) [2] is on record?
A: The apparent time constant of ubiquitin insertion (τinitiation) was 5.1 s.

B1: Faf2 Δ1-271 (domain or fragment)
chain: YLVSERLEREERNQTQVLRQQQDEAYLASLRADQEKERKKREERERKRRKEEEVQQQKLAEERRRQNLQEEKERKLECLPPEPSPDDPESVKIIFKLPNDSRVERRFHFSQSLTVIHDFLFSLKESPEKFQIEANFPRRVLPCIPSEEWPNPPTLQEAGLSHTEVLFVQDLTDE
Q: How did the Eos-unfolding activity of p97-UN (Ufd1 (human) (human)) turn out when B1 was run?
A: Its Eos-unfolding activity of p97-UN is 5 fold.
